Measurements taken from patent US20240010735A1 (EISAI R AND D MANAGEMENT, published 2024).

Tests used:
Assay in all cases: ELISA: SEAP-His proteins (1 nM) captured on anti-6-His antibody, antibody A 10 µg/mL with human IgG 100 µg/mL, HRP anti-mouse IgG, OD450 as % of human EphA4-SEAP-His
[1] = biological target: T1, human EphA7 extracellular region-SEAP-His protein (human, UniProt Q15375 28-555)
T1 construct: extracellular domain; also called Eph receptor extracellular region-SEAP-His protein; not shown: secretory alkaline phosphatase (SEAP); histidine tag
T1 sequence (looked up): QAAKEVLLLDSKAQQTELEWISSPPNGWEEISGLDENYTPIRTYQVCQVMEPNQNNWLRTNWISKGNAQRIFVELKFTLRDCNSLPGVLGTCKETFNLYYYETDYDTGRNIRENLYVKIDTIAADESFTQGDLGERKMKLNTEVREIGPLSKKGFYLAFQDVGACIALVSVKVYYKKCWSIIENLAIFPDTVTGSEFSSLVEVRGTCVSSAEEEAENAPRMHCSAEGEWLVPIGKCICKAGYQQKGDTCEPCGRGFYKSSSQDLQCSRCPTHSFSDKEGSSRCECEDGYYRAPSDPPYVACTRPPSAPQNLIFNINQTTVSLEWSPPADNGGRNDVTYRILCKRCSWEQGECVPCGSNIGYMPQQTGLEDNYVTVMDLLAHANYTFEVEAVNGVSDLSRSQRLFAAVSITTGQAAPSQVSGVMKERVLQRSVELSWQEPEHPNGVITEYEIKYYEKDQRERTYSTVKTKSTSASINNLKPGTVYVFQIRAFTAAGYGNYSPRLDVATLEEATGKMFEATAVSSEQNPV
Experimental: (§1) Rabbit anti-6-His antibodies (Bethel Laboratories) were coated onto the wells of a 96-well plate (Nunc). After incubating at 4° C. overnight, the wells were blocked at room temperature for 1 hour by 1% Block Ace (DS Pharma Biomedical). After washing 3 times with 0.05% Tween 20/PBS (Thermo […]), each Eph receptor of human extracellular region-SEAP-His protein (final concentration 1 nM) was seeded into each well, and incubated at room temperature for 1 hour. After washing 3 times, human IgG solution (100 μg/mL, Mitsubishi Pharma Corporation) and antibody A (10 μg/mL) were supplemented to the wells, and incubated at room temperature for 1 hour. Horseradish peroxidase-labeled donkey anti-mouse IgG antibody (Jackson ImmunoResearch Laboratories) was added, and incubated at room, temperature for 1 hour. After washing 3 times, TMBZ (3,3′,5,5′-tetramethylbenzidine, Sigma) solution was added to the wells, and upon confirmation of modest coloring, an equal amount of quenching solution (1 N H₂SO₄, Wako Pure Chemicals) was added to the wells, and absorbance at 450 nm was read by a microplate reader (PerkinElmer).

[2] = biological target: T2, human EphA1 extracellular region-SEAP-His protein (human, UniProt P21709 26-547)
T2 construct: extracellular domain; also called Eph receptor extracellular region-SEAP-His protein; not shown: secretory alkaline phosphatase (SEAP); histidine tag
T2 sequence (looked up): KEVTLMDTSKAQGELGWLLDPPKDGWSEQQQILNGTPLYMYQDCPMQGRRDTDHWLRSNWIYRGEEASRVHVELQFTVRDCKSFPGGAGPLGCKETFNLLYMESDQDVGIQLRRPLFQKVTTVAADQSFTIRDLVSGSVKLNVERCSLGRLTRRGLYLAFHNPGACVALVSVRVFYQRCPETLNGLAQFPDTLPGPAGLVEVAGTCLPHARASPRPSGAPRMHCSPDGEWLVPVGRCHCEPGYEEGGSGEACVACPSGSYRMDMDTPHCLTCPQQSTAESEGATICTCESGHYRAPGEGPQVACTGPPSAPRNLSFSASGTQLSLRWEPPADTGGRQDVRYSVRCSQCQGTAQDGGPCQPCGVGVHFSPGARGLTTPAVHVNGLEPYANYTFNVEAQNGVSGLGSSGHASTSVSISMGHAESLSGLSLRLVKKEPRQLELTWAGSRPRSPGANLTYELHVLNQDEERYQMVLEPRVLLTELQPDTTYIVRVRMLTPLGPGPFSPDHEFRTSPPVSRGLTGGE
Experimental: as §1

[3] = biological target: T3, human EphB3 extracellular region-SEAP-His protein (human, UniProt P54753 34-559)
T3 construct: extracellular domain; also called Eph receptor extracellular region-SEAP-His protein; not shown: secretory alkaline phosphatase (SEAP); histidine tag
T3 sequence (looked up): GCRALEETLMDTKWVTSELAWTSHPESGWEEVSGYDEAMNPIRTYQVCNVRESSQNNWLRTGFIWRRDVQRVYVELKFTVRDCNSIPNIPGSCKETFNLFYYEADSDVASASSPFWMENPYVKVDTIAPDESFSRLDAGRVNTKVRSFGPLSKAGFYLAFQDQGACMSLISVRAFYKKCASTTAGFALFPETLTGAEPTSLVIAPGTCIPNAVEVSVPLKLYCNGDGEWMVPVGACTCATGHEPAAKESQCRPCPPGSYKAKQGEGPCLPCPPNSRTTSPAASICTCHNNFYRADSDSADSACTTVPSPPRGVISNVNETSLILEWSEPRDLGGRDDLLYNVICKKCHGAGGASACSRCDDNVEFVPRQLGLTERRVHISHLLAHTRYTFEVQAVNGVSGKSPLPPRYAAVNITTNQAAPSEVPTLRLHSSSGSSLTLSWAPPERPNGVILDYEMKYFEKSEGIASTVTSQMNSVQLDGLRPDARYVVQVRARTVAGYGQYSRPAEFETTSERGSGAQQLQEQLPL
Experimental: as §1

[4] = biological target: T4, human EphA2 extracellular region-SEAP-His protein (human, UniProt P29317 24-537)
T4 construct: extracellular domain; also called Eph receptor extracellular region-SEAP-His protein; not shown: secretory alkaline phosphatase (SEAP); histidine tag
T4 sequence (P29317 24-537): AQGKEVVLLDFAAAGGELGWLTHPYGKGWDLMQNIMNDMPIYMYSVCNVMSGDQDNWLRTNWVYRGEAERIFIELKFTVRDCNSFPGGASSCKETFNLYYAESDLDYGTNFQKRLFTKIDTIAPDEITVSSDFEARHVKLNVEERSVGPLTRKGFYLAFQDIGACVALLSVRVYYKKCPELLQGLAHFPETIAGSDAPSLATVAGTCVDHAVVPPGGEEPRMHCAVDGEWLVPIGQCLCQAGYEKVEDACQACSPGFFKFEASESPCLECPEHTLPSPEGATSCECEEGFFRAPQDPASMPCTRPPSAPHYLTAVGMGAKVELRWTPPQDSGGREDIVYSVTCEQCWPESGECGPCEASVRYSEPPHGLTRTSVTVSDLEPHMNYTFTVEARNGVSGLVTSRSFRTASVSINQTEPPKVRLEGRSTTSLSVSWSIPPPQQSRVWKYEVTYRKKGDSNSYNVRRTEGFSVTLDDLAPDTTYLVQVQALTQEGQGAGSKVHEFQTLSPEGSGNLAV
Experimental: as §1

Measured: binding result

B1: mouse anti-EphA4 monoclonal antibody (antibody A) (antibody, mouse IgG1, kappa, V domains shown)
VH: QVQLKQSGPSLVQPSQSLSITCTVSGFSLTRYGVHWVRQSPGKGLEWLGVIWRGGSTDYNAAFMSRLSITKDNSKSQVFFKMNSLQADDTAIYYCAKESLFGVYYDYGYYSMDYWGQGTSVTVSS
VL: DIQMTQSPSSLSASLGERVSLTCRASQEISGYLSWLQQKPDGTIKRLIYAASTLDSGVPKRFSGSRSGSDYSLTISSLESEDFADYYCLQYASYPLTFGAGTKLELKR
notes: purified from hybridoma supernatant
no binding (tested: 10 µg/mL): all assays above
